In PMC2148214 (The Journal of Cell Biology, 1999):

Target: the molecule itself
Assay: velocity gradient sedimentation

B1: wild-type HTLV-1 envelope precursor glycoprotein (natural protein, UniProt P03381 21-488, looked up)
chain: DYSPSCCTLTIGVSSYHSKPCNPAQPVCSWTLDLLALSADQALQPPCPNLVSYSSYHATYSLYLFPHWTKKPNRNGGGYYSASYSDPCSLKCPYLGCQSWTCPYTGAVSSPYWKFQHDVNFTQEVSRLNINLHFSKCGFPFSLLVDAPGYDPIWFLNTEPSQLPPTAPPLLPHSNLDHILEPSIPWKSKLLTLVQLTLQSTNYTCIVCIDRASLSTWHVLYSPNVSVPSSSSTPLLYPSLALPAPHLTLPFNWTHCFDPQIQAIVSSPCHNSLILPPFSLSPVPTLGSRSRRAVPVAVWLVSALAMGAGVAGGITGSMSLASGKSLLHEVDKDISQLTQAIVKNHKNLLKIAQYAAQNRRGLDLLFWEQGGLCKALQEQCRFPNITNSHVPILQERPPLENRVLTGWGLNWDLGLSQWAREALQTGITLVALLLLVILAGPCILRQLRHLPSRVRYPHYSLIKPESSL
stoichiometry N: 2
